Data on one molecule can be found in patent US20180022822A1 (MABIMMUNE DIAGNOSTICS, published 2018).

For assay [1], the target named is T1, recombinant human Fibroblast Activation Protein (FAP) with N-terminus 6x histidine tag (human, UniProt Q12884 26-760).
T1 construct: Bought protein; also called rFAP; rhFAP
T1 sequence: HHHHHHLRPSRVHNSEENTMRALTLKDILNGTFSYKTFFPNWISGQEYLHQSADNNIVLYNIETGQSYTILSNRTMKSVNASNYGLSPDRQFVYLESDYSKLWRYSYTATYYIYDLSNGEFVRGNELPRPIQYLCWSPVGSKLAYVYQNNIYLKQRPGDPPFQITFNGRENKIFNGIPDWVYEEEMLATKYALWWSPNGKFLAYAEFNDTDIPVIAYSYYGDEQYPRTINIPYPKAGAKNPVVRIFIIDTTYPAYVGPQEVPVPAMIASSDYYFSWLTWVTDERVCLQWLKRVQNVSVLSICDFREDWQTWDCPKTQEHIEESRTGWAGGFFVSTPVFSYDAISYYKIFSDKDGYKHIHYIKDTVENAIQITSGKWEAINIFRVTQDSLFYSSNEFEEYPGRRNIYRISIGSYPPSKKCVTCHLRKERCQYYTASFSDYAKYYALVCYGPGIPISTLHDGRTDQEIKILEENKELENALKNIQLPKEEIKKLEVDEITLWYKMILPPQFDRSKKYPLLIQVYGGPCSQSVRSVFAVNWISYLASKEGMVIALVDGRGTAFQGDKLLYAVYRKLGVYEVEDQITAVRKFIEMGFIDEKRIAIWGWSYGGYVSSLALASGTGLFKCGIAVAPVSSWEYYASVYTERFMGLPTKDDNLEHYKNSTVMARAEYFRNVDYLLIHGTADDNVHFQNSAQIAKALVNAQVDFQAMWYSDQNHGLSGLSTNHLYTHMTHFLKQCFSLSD
Put plainly: SPR (ProteOn): rhuFAP amine-coupled on a GLC chip, antibody injected at 106.7, 53.3, 26.7, 13.3 and 6.7 nM. The method, then: This was achieved by varying the concentration of the activation reagents used in each channel. Three activation solutions were prepared using a threefold serial dilution of a stock mixture containing 0.4 M EDC+0.1 M sulfo-NHS and injected for 360 s. Then rhuFAP at 2.5 μg/ml in coupling buffer (10 mM HEPES, 150 mM NaCl, 3.4 mM EDTA, 0.005% Tween 20, pH 5.2) was coupled for 1020 s at 25 μL/min. Excess reactive esters were blocked for 600 s with 1 M ethanolamine hydrochoride. […] serial dilution of […] starting at 16 μg/mL (106.7 nM) was injected for 400 s at 60 μL/min. A single injection delivered a full concentration series, using buffer to complete a row of six samples and provide an in-line blank for double-referencing the response data. Association and dissociation phases were measured for 400 s and 3600 s, respectively.

In assay [2] the target is T1, recombinant human Fibroblast Activation …. Description: ELISA: rhFAP held on the plate by an anti-tag antibody, HRP-labelled NI-206.82C2 titrated, TMB, OD 450 nm [continued) E]. An excerpt:
Active recombinant human enzymes evaluated in this assay include: Fibroblast Activation Protein (FAP; Sino Biologicals, 10464-H07H), Dipeptidyl Peptidase IV (DPPIV, BPS Bioscience 80040), Dipeptidyl Peptidase 8 (DPP8, BPS Bioscience 80080), Dipeptidyl Peptidase 9 (DPP9, BPS Bioscience 80080), and Prolyl Oligopeptidase/Prolyl Endopeptidase (POP/PREP, BPS Bioscience 80105). Each recombinant peptidase was expressed with a purification tag, and attached to the 96 well ELISA plate using either a mouse anti-Histidine antibody (CloneTech), or a mouse anti-Glutathione S-transferase (GST, Sino Biologicals, 111213-MM02) tag antibody. […] H-Gly-Pro-AMC (ATT Bioquest, 13450) was used to validate the presence and activity of DPP4, DPP9, and DPP8. Z-Gly-Pro-AMC (BaChem, 11145) was used to evaluate the activity of FAP and POP/PREP. […] Following a washing step, bound antibody was detected using 3,3′,5,5′-Tetramethylbenzidine (TMB) substrate.

Assay [3] has as its target T2, bovine serum albumin (BSA) (bovine, UniProt P02769 25-607).
T2 construct: Negative control antigen in the ELISAs
Description: direct ELISA: BSA coated directly on the plate.

Assay [4] concerns the target T1, recombinant human Fibroblast Activation …. Description: direct ELISA: rFAP directly coated (FAP).
Assay [5] addresses T3, FAP peptide 521-539 with alanine substitution at position 532 (human).
T3 construct: also called spot 13
T3 peptide: KMILPPQFDRSAKYPLLIQ
Put plainly: alanine-mutated linear peptides spotted on nitrocellulose. As to the method:
(§1) Binding capacity of the antibodies was tested on these peptides spotted onto a nitrocellulose membrane (JPT Peptide Technologies, Berlin, Germany) and using HRP-conjugated donkey anti-human IgG secondary antibody (Jackson immunoResearch, Newmarket, UK) followed by detection of HRP activity (FIGS. 4A and C). In brief, epitope mapping was performed using scans of overlapping peptides. The entire sequences of FAP were synthesized as a total of 188 linear 15-mer peptides with an 11 amino acid overlap between individual peptides. Those peptides were spotted onto nitrocellulose membranes (JPT Peptide Technologies, Berlin, Germany). The membrane was activated for 5 min in methanol and washed in TBS for 10 min at RT. Non-specific binding sites were blocked for 2 h at RT with Roti®-Block (Carl Roth GmbH+Co. KG, Karlsruhe, Germany). Human antibodies (1 μg/ml) were incubated in Roti®-Block for 3 h at RT. Binding of primary antibody was determined using HRP-conjugated donkey anti-human IgG secondary antibody. Blots were developed and evaluated using ECL and ImageQuant 350 detection (GE Healthcare, Otelfingen, Switzerland).

For assay [6], the target named is T4, FAP peptide 521-539 with alanine substitution at position 529 (human).
T4 construct: also called spot 10
T4 peptide: KMILPPQFARSKKYPLLIQ
Described as above. The method, then: as §1

T2 sequence (P02769 25-607 limits assumed): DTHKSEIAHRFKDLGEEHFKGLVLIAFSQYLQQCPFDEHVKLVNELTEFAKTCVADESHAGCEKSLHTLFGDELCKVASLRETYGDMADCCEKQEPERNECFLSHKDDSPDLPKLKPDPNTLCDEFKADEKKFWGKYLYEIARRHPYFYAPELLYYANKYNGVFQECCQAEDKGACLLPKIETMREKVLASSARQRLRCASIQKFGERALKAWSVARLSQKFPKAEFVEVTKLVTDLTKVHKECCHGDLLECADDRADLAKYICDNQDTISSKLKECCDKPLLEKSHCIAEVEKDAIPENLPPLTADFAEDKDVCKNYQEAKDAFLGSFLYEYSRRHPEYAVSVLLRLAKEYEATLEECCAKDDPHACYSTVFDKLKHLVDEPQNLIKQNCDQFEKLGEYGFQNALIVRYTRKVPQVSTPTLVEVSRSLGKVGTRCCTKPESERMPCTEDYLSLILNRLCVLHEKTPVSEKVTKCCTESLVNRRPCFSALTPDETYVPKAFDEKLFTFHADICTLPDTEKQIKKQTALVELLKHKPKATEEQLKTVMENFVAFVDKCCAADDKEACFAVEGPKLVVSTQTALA

B1: NI-206.82C2 (antibody, V domains shown)
VH: QVQLQQSGPGLVKPSQTLSLTCAISGDSVSSNSVTWNWIRQSPSRGLEWLGRTYYRSKWYNDYAVSVKGRITINPDTSKNQFYLQLKSVTPEDAAVYYCARDSSILYGDYWGQGTLVTVSS
VL: QAVLTQPSSLSASPGASASLTCTLPSGINVGTYRIFWFQQKPGSPPQYLLSYKSDSDNHQGSGVPSRFSGSKDASANAGILLISGLQSEDEADYYCMIWHSSAWVFGGGTKLTVL
notes: Recombinantly expressed as complete human IgG1 with a lambda light chain; HRP-labelled in the homologue and sandwich ELISAs, Cy5-labelled in flow cytometry; also called HRP-labelled 82C2; Cy5 labelled 82C2
Turning to B1, in assay [1], the Kd turned out to be 5.08 nM, the koff was 0.000861 s⁻¹ and the on-rate (kon) came to 173000 M⁻¹ s⁻¹. Moreover, the “EC50 (read off the curve)” value in assay [2] was about 0.05 nM. The binding result in assay [3] was “no binding”. Further, in assay [4], the EC50 worked out at 0.61 nM. Besides, the binding result in assay [5] was “no binding”. Also, the binding result in assay [6] was “no binding”.
